One experiment deals with T1, recombinant human TNF-α (human, UniProt P01375 77-233).
T1 construct: also called rhTNF-α
Description: dual-ligand ELISA: plate-coated HIL-6, Xceptor, 2 ng/ml TNF-α, anti-human TNF-α-biotin. The procedure:
Added to each well of a 96-well plate was 100 μl human HIL-6 solution (5 μg/ml in PBS, pH 7.2-7.4). The plate was covered, and incubated overnight at 4° C. After washing four times with PBS-T, then 250 μl Blocking buffer was added to each well, the plate was covered, and incubated at room temperature for 2 hours (or at 4° C. overnight). After washing the plate three times with PBS-T, added in duplicate wells to the HIL-6 coated plate was 100 μl/well Xceptor TNFRSF1B::HIL6 samples serially diluted three-fold in Working buffer starting at 300 ng/ml. Negative controls included human gp130-Fc chimera (R&D Systems, Minneapolis, Minn.), Enbrel® (etanercept), and Working buffer only. The plate was covered and incubated at room temperature for 1.5 hours. After washing the plate five times with PBS-T, 100 μl per well recombinant human TNF-α (R&D Systems, Minneapolis, Minn.) to 2 ng/ml in Working buffer was added, the plate was covered, and incubated at room temperature for 1.5 hr. After washing the plate five times with PBS-T, 100 μl per well anti-human TNF-α-biotin (R&D Systems) to 200 ng/ml in Working buffer was added, the plate was covered, and incubated at room temperature for 1.5 hr. […] The absorbance of each well was read at 450 nm.

For experiment [1], the target named is Xceptor fusion protein TRU(XT6)-1042. Description: sandwich ELISA: Xceptor captured on anti-human IgG-Fc, sIL-6R, anti-human IL-6R-biotin. The protocol: Added to each well of a 96-well plate was 100 μl goat anti-human IgG-Fc (ICN Pharmaceuticals, Costa Mesa, Calif.) from a 2 μg/ml solution in PBS, pH 7.2-7.4, The plates were covered, and incubated overnight at 4° C. After washing four times with PBS-T, 250 μl Blocking buffer (PBS-T with 3% BSA or 10% normal goat serum) was added to each well, the plate was covered, and incubated at room temperature for 2 hours (or at 4° C. overnight). After washing the plate three times with PBS-T, added in duplicate wells to the anti-human IgG-Fc coated plate was 100 μl/well Xceptor TNFRSF1B::anti-HIL6 samples, positive control anti-human IL-6R(R&D Systems, Minneapolis, Minn.) and negative controls human IgG or human gp130-Fc chimera (R&D Systems), each serially diluted three-fold in Working buffer starting at 300 ng/ml, the plate was covered, and incubated at room temperature for about 1 to 2 hours. After washing the plate five times with PBS-T, added in duplicate wells was 100 μl/well recombinant human sIL-6R(R&D Systems) from a 75 pM solution in Working buffer, the plate was covered, and incubated at room temperature for about 1 to 2 hours. After washing the plate five times with PBS-T, added 100 μl/well anti-human IL-6R-biotin (R&D Systems) from a 100 ng/ml solution in Working buffer, the plate was covered, and incubated at room temperature for about 1 to 2 hours. After washing the plate five times with PBS-T, 100 μl per well horse radish peroxidase-conjugated streptavidin (Zymed, San Francisco, Calif.) diluted 1:4,000 in Working buffer was added, the plate was covered, and incubated at room temperature for 30 minutes. After washing the plate six times with PBS-T, 100 μl per well 3,3,5,5-tetramentylbenzidine (TMB) substrate solution (Pierce, Rockford, Ill.) was added for about 3 to 5 minutes and then the reaction was stopped with 50 μl Stop buffer (1N H₂SO₄) per well. The absorbance of each well was read at 450 nm.

The results in this text go back to patent US20110177070A1 (EMERGENT PRODUCT DEVELOPMENT SEATLLE, published 2011).

T1 sequence (P01375 77-233 limits assumed): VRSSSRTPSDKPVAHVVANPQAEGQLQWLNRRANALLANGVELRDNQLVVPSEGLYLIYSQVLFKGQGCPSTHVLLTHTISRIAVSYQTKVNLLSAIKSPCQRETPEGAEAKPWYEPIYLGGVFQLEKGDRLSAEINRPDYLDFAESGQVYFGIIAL

B1: Xceptor fusion protein TRU(XT6)-1006 (Fc fusion)
chain: LPAQVAFTPYAPEPGSTCRLREYYDQTAQMCCSKCSPGQHAKVFCTKTSDTVCDSCEDSTYTQLWNWVPECLSCGSRCSSDQVETQACTREQNRICTCRPGWYCALSKQEGCRLCAPLRKCRPGFGVARPGTETSDVVCKPCAPGTFSNTTSSTDICRPHQICNVVAIPGNASMDAVCTSTSPTRSMAPGAVHLPQPVSTRSQHTQPTPEPSTAPSTSFLLPMGPSPPAEGSTGDTGEPKSSDKTHTCPPCPAPEAAGAPSVFLFPPKPKDTLMISRTPEVTCVVVDVSHEDPEVKFNWYVDGVEVHNAKTKPREEQYNSTYRVVSVLTVLHQDWLNGKAYACAVSNKALPAPIEKTISKAKGQPREPQVYTLPPSRDELTKNQVSLTCLVKGFYPSDIAVEWESNGQPENNYKTTPPVLDSDGSFFLYSKLTVDKSRWQQGNVFSCSVMHEALHNHYTQKSLSLSPGQRHNNSSLNTRTQKARHSPNSEVQLLESGGGLVQPGGSLRLSCAASGFTFSQYNMIWVRQAPGKGLEWVSWISSSGGTEYADSVKGRFTISRDNSKNTLYLQMNSLRAEDTAVYYCAKDRGYGSGSYGAYDAFDIWGQGTMVTVSSGGGGSGGGGSGGGGSQDIQMTQSPSSLSASVGDRVTITCQTSQSIDRYLNWYQQKAGEAPKLLIYAASSLQSGVPSRFSGSGSGTDFTLTISSLQPEDFASYYCQQSYRTPRTFGQGTKVEIK
notes: Xceptor TNFRSF1B::anti-HIL6
As for B1, the binding result with recombinant human TNF-α is “binds”.

B2: recombinant human sIL-6R (receptor)
chain: LAPRRCPAQEVARGVLTSLPGDSVTLTCPGVEPEDNATVHWVLRKPAAGSHPSRWAGMGRRLLLRSVQLHDSGNYSCYRAGRPAGTVHLLVDVPPEEPQLSCFRKSPLSNVVCEWGPRSTPSLTTKAVLLVRKFQNSPAEDFQEPCQYSQESQKFSCQLAVPEGDSSFYIVSMCVASSVGSKFSKTQTFQGCGILQPDPPANITVTAVARNPRWLSVTWQDPHSWNSSFYRLRFELRYRAERSKTFTTWMVKDLQHHCVIHDAWSGLRHVVQLRAQEEFGQGEWSEWSPEAMGTPWTESRSPPAENEVSTPMQALTTNKDDDNILFRDSANATSLPVQD
notes: Bought soluble receptor; also called human soluble IL6R; IL6R alone
For the molecule B2, in experiment [1], the binding result is “no binding (tested: Xceptor from 300 ng/ml; sIL-6R 75 pM)”.
